For experiment [1], the target named is T1, human CDH6 (cadherin-6), full-length, on cells (human, UniProt P55285 54-790).
T1 construct: also called hCDH6; full-length hCDH6
T1 sequence: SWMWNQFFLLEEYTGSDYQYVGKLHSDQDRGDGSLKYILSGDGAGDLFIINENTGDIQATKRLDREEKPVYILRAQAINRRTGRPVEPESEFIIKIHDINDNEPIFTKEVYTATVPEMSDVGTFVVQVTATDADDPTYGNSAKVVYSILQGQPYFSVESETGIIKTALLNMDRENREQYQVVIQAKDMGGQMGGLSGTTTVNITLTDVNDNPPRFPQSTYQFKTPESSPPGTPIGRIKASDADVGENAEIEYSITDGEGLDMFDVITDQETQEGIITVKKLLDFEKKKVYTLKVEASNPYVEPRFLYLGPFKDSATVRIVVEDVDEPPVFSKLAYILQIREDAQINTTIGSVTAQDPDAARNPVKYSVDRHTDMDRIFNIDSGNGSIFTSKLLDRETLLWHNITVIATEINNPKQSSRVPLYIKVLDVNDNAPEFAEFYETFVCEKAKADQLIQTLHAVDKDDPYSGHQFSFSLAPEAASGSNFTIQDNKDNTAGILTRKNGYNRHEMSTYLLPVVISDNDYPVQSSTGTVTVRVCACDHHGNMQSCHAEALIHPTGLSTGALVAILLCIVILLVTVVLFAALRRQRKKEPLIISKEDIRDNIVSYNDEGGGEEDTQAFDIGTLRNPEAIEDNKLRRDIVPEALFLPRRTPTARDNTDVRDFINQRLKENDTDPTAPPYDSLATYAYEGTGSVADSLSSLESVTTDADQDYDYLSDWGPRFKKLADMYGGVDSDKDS
Nature of the experiment: flow cytometry; 293α cells transfected with pcDNA3.1-hCDH6; PE anti-human IgG Fcγ F(ab')2. On the technique in general: In flow cytometry, cells or beads pass a laser one at a time.

The target of experiment [2] is T2, cynomolgus monkey CDH6, on cells (cynomolgus monkey, UniProt P55285 54-790 (human entry)).
T2 construct: Expressed from pcDNA3.1-cynoCDH6; also called cynoCDH6
T2 sequence: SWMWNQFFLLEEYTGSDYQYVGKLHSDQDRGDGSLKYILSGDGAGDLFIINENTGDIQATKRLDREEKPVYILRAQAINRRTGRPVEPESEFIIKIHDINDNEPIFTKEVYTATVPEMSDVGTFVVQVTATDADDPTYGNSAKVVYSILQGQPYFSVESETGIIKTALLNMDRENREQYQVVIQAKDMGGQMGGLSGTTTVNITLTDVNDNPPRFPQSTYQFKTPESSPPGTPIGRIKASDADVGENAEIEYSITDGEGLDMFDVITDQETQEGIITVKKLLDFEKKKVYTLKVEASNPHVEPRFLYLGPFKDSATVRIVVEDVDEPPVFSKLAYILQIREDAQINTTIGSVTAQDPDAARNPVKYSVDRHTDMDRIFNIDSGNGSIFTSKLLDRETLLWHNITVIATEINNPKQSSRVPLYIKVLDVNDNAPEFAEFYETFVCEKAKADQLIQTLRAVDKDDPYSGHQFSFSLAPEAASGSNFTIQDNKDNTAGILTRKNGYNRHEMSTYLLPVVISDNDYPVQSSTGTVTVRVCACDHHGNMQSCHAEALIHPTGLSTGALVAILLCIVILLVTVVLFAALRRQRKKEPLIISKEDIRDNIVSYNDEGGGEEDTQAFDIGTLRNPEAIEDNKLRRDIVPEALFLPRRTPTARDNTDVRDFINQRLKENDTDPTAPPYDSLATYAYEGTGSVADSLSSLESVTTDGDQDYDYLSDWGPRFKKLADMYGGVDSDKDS
Nature of the experiment: flow cytometry; 293α cells transfected with pcDNA3.1-cynoCDH6; PE anti-human IgG Fcγ F(ab')2.

For experiment [3], the target named is T3, mouse CDH6, on cells (mouse, UniProt P97326 54-790).
T3 construct: also called mCDH6; NP_031692
T3 sequence: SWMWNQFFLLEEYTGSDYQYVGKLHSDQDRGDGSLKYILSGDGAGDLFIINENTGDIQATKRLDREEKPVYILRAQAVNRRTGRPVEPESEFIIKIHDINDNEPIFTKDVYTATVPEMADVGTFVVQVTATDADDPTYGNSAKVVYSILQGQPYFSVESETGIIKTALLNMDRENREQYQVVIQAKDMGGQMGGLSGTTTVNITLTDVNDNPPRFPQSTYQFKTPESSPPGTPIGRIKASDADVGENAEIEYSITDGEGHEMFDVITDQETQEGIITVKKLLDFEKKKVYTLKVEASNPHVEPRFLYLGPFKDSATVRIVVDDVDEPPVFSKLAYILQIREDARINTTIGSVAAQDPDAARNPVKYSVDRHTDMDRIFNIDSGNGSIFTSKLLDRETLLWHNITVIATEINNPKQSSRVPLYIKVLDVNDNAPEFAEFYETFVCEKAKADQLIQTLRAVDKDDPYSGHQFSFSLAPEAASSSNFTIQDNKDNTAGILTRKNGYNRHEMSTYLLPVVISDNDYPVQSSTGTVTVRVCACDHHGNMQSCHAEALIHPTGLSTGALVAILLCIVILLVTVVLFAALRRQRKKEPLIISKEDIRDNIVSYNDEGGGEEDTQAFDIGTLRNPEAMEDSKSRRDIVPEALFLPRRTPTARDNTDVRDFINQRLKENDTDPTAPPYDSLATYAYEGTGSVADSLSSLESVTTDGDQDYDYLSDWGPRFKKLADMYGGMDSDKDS
Briefly: flow cytometry; 293α cells transfected with mCDH6; PE anti-human IgG Fc(gamma) goat F(ab').

Experiment [4] addresses T4, rat CDH6, on cells (rat, UniProt P55280 54-789).
T4 construct: also called rCDH6; NP_037059
T4 sequence: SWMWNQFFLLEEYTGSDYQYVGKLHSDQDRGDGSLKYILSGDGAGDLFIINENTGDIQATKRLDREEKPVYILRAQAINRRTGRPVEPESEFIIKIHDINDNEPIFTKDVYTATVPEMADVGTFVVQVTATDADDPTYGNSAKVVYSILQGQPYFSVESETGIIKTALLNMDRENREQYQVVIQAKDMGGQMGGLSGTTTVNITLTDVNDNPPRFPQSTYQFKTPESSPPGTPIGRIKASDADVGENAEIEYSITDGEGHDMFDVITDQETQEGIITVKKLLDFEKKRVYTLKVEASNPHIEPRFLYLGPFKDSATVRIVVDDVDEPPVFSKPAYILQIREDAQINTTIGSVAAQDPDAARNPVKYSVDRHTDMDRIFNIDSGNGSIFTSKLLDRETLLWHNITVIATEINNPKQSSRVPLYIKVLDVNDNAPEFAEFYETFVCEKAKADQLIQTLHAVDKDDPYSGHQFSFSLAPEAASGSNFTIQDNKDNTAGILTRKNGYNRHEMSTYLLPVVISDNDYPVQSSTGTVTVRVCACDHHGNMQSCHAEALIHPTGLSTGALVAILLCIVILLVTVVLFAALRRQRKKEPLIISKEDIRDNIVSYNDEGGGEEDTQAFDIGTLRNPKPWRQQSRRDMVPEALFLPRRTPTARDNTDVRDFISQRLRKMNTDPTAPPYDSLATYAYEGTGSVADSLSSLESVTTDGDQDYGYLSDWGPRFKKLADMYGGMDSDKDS
Briefly: flow cytometry; 293α cells transfected with rCDH6; PE anti-human IgG Fc(gamma) goat F(ab').

Experiment [5] deals with T5, Recombinant Human CDH6 Fc His chimera (R&D Systems, Inc.) (human, UniProt P55285 54-615).
T5 construct: Bought reagent; also called the antigen; human CDH6 antigen; Fc part of the bought chimera not given; His tag of the bought chimera
T5 sequence: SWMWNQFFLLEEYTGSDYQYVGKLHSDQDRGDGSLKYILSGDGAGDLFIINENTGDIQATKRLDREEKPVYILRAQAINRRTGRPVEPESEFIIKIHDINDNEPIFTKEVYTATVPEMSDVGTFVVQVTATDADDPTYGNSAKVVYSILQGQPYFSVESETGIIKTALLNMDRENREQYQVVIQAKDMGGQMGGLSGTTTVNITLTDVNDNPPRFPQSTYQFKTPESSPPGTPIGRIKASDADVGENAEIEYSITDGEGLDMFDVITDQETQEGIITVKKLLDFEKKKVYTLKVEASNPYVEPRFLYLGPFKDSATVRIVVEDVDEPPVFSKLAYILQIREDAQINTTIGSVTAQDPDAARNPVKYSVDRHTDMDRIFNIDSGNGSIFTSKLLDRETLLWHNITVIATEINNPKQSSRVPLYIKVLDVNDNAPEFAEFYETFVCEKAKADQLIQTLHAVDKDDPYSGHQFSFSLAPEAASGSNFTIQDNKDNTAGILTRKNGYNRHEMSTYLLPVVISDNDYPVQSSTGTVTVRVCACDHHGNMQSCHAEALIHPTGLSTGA
Nature of the experiment: SPR (Biacore T200); antigen captured by immobilized anti-His antibody, antibody as analyte 0.391 to 100 nM; steady state affinity model. (In general: Surface plasmon resonance follows binding to a sensor surface in real time, without labels.)

Experiment [6] has as its target T6, EC3 deletion mutant of human CDH6, on cells (human, UniProt P55285 54-790).
T6 construct: in p3×FLAG-CMV-9; also called EC3-deleted hCDH6
T6 sequence: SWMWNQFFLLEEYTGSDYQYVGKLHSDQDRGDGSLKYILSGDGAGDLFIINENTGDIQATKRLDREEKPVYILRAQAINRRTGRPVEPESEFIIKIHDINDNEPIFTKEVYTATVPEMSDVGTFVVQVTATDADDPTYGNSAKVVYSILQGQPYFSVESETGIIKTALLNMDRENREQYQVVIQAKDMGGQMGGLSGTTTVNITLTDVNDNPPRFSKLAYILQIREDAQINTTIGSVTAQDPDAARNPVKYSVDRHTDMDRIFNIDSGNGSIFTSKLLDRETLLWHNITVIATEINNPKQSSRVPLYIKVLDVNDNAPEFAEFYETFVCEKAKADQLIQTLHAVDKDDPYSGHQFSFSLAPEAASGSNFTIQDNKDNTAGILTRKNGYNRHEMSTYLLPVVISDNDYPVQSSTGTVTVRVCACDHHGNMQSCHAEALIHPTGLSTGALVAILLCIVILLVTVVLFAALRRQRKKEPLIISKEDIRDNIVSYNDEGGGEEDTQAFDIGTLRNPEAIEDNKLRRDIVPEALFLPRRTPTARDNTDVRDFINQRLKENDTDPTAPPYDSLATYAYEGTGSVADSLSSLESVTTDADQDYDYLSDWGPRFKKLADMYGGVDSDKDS
Briefly: flow cytometry; 293α cells transfected with EC3-deleted hCDH6 (open line) against untransfected 293α cells (shaded); APC anti-human IgG goat F(ab')2; antibody concentration not given.

We go through 4 molecules from patent US20240390512A1 (Daiichi Sankyo, published 2024).

For orientation: EC50 (read off the curve) means the concentration needed to bring the measured effect to its halfway point. By Kd is commonly meant the concentration at which binding is half-saturated.

B1: human chimeric anti-CDH6 antibody chG019 (antibody, human IgG1)
heavy: not shown
light: DIQMTQSPSLLSASVGDRVTLNCKASQNIYKNLAWYQQKLGEGPKLLIYDANTLQTGIPSRFSGSGSGSDFTLTISSLQPEDVATYFCQQYYSGWAFGGVTNLELKRAVAAPSVFIFPPSDEQLKSGTASVVCLLNNFYPREAKVQWKVDNALQSGNSQESVTEQDSKDSTYSLSSTLTLSKADYEKHKVYACEVTHQGLSSPVTKSFNRGEC
notes: human IgG1 / kappa constant regions; also called chimeric G019 antibody; chG019 antibody
Take B1: the “EC50 (read off the curve)” value in experiment [1] and in experiment [2] was about 0.01 µg/mL each time.

B2: humanized anti-CDH6 antibody H02L02 (antibody, human IgG1, kappa, V domains shown)
VH: EVQLVQSGAEVKKPGASVKVSCKASGYTFTRNFMHWVRQAPGQGLEWMGWIYPGDGETEYNQKFQGRVTITADRSTSTAYMELSSLRSEDTAVYFCARGVYGGFAGGYFDFWGQGTLVTVSS
VL: DIQMTQSPSSLSASVGDRVTITCKASQNIYKNLAWYQQKPGKAPKLLIYDANTLQTGVPSRFSGSGSGSDFTLTISSLQPEDFATYFCQQYYSGWAFGQGTKVEIKR
notes: hH02 heavy chain and hL02 light chain, human IgG1 / kappa; also called H02L02 antibody
Regarding B2, the binding result in experiment [3] is reported as “no binding (tested: about 4, unit not printed on the axis)”; in experiment [4], “no binding (tested: about 4, unit not printed on the axis)”; in experiment [6] it was “no binding”. Moreover, the Kd in experiment [5] worked out at 1.1 nM.

B3: humanized anti-CDH6 antibody H01L02 (antibody, human IgG1, kappa, V domains shown)
VH: EVQLVQSGAEVKKPGASVKVSCKASGYTFTRNFMHWVRQAPGQGLEWMGWIYPGDGETEYAQKFQGRVTITADTSTSTAYMELSSLRSEDTAVYYCARGVYGGFAGGYFDFWGQGTLVTVSS
VL: DIQMTQSPSSLSASVGDRVTITCKASQNIYKNLAWYQQKPGKAPKLLIYDANTLQTGVPSRFSGSGSGSDFTLTISSLQPEDFATYFCQQYYSGWAFGQGTKVEIKR
notes: hH01 heavy chain and hL02 light chain, human IgG1 / kappa; also called H01L02 antibody; humanized hG019 (H01L02)
For the molecule B3, the binding result in experiment [3] is “no binding (tested: about 4, unit not printed on the axis)”; in experiment [4] it was “no binding (tested: about 4, unit not printed on the axis)”; in experiment [6], “no binding”. The Kd in experiment [5] amounted to 1.5 nM.

B4: humanized anti-CDH6 antibody H02L03 (antibody, human IgG1, kappa, V domains shown)
VH: EVQLVQSGAEVKKPGASVKVSCKASGYTFTRNFMHWVRQAPGQGLEWMGWIYPGDGETEYNQKFQGRVTITADRSTSTAYMELSSLRSEDTAVYFCARGVYGGFAGGYFDFWGQGTLVTVSS
VL: DIQMTQSPSSLSASVGDRVTITCKASQNIYKNLAWYQQKLGEGPKLLIYDANTLQTGVPSRFSGSGSGTDFTLTISSLQPEDFATYYCQQYYSGWAFGQGTKVEIKR
notes: hH02 heavy chain and hL03 light chain, human IgG1 / kappa; also called H02L03 antibody
Regarding B4, the binding result in experiment [3] is reported as “no binding (tested: about 4, unit not printed on the axis)”; in experiment [4], “no binding (tested: about 4, unit not printed on the axis)”; in experiment [6], “no binding”. In addition, the Kd in experiment [5] amounted to 1.4 nM.
